Patent publication US20100129315A1 (published 2010)

Biological target: human MN protein, entire extra-cellular domain with a C-terminal histag, expressed in HKB-11 cells (human, UniProt Q16790 38-414)
Assay: BIAcore; crude Fab

B1: 5aa3 Crude Fab (antibody, V domains shown)
VH: ELVQSGAEVKKPGESLKISCKGSGYSFTGYISWVRQAPGKGLEWMGIIYPGDSYTNYSPSFQGQVTISADKSISTAYLQWSSLKASDTAMYYCARYSGPNWDVMDSWGQGTLVTVSS
VL: DIVLTQPPSVSGAPGQRVTISCSGSSSNIGSYYVNWYQQLPGTAPKLLIYADDKRPSGVPDRFSGSKSGTSASLAITGLQSEDEADYYCQSYDSTKDDSVFGGGTKL
B1 showed a Kd of 0.025 µM.
